The values below are quoted from earlier work in patent publication US20170128542A1 (Albireo Pharma, Inc., priority 2015, published 2017).

Experiment in series [1]: not given
This is another data set of the same source.

As to glucagon, the “Onset of action after injection” value is 5 to 20 min. Further, in series [1] (acidic solution (pH 2-4), within 24 hours at 37° C.), the “Glucagon decomposed into degradation products” value is 5-70%. For the same substance, the “Aggregation in aqueous solutions of pH 3 or less” value in series [1] (aqueous solution, pH 3 or less) is reported as “aggregate to form a gel within an hour”.
